# Where no end group is shown, it is not given here.
# Columns and labels:
# [1] = target: ClpAP complex (hexameric ClpA associated with tetradecameric ClpP) (Escherichia coli, UniProt P0ABH9 1-758; P0A6G7 15-207); assay: single-turnover stopped-flow fluorescence
# SEC = target: the molecule itself; assay: SEC
# ClpAP complex (hexameric ClpA associated with tetradecameric ClpP), sequence (P0ABH9 whole entry, chain 1 of 2): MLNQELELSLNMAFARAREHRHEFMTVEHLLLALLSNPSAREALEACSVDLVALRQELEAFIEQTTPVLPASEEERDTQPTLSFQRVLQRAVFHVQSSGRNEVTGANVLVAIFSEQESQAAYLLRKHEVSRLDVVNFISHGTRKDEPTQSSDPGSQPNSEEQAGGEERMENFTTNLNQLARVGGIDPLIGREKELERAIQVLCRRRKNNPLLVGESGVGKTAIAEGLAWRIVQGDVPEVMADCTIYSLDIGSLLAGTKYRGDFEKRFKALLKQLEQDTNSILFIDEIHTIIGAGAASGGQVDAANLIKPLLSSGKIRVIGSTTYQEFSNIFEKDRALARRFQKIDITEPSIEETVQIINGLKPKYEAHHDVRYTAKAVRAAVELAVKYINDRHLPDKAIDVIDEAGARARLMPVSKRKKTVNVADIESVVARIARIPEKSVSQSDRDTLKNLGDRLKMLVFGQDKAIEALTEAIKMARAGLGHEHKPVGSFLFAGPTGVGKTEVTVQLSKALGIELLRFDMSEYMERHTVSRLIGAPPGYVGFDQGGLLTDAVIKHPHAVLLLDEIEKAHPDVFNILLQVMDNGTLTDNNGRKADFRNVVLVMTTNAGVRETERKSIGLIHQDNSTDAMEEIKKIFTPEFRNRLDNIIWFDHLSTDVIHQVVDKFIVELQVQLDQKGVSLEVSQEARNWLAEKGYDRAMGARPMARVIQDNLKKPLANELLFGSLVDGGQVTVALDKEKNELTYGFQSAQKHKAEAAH
# ClpAP complex (hexameric ClpA associated with tetradecameric ClpP), sequence (P0A6G7 15-207, chain 2 of 2): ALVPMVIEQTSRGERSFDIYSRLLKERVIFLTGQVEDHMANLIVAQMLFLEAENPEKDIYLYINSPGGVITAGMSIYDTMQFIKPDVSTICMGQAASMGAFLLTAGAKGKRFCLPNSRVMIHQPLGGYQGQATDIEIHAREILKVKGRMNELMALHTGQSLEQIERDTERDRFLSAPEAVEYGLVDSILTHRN
Binder,binding result [1],stoichiometry N (SEC)
C(fluorescein‑5‑maleimide)TGEVSFQAANTKSAANLKVKELRSKKKLAANDENYALAA [N-Cys-40 polypeptide translocation substrate],binds,–
Escherichia coli ClpP (enzyme) not shown,–,7

# Further lines, with some results ahead:
binding result [1],Binder,stoichiometry N (SEC)
binds,C(fluorescein‑5‑maleimide)LILHNKQLGMTGEVSFQAANTKSAANLKVKELRSKKKLAANDENYALAA [N-Cys-50 polypeptide translocation substrate],–
binds,C(fluorescein‑5‑maleimide)TKSAANLKVKELRSKKKLAANDENYALAA [N-Cys-30 polypeptide translocation substrate],–

# Source: publication PMC3918674 (Journal of molecular biology, 2013)
